Assay results published in patent publication US20260008815A1, “CYCLIC PEPTIDE OR SALT THEREOF, AND USES THEREOF” (FUJIFILM Corporation, priority 2023, published 2026).
Bridge positions count the residues as written; N and C are the ends. Ends that are not written are not given here. COCH2 = acetyl group that carries the bridge

Legend:
[1] = target: T1, Recombinant Human FGFR2 alpha (IIIc) Fc Chimera Protein (Homo sapiens, UniProt P21802); assay: SPR binding affinity of chemically synthesized cyclic peptide to immobilized FGFR; conditions: SPR binding amount at 10 nmol/L cyclic peptide, 25° C., per one molecule of FGFR; chemically synthesized product
T1 construct: Fc (chimera); purchased R&D systems 712-FR-050
T1 sequence (P21802 with tags, fused parts or gaps limits assumed): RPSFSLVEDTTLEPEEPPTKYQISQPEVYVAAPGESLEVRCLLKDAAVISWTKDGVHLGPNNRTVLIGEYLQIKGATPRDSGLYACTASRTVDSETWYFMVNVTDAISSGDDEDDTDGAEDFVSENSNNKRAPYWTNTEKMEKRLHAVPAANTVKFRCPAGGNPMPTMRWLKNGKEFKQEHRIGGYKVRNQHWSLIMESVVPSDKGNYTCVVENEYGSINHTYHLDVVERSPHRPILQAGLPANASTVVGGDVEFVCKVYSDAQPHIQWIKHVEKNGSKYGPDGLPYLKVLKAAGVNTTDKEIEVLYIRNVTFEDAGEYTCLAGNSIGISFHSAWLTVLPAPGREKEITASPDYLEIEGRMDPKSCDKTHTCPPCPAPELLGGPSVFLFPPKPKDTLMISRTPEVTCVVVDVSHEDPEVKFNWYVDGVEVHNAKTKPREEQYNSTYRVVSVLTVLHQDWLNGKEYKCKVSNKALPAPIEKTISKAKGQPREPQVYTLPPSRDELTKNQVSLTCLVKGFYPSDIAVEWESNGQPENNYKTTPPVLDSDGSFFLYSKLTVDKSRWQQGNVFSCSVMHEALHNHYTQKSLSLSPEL
Procedure: The binding affinity of the cyclic peptide to FGFR was evaluated using a surface plasmon resonance (SPR) method.
(§1) A CM5 sensor chip (Cytiva, 29149603) was set in Biacore-T200 (manufactured by Cytiva) which is a surface plasmon resonance device, and an HBS-EP buffer (Cytiva, BR100826) was added as a running buffer at a flow rate of 10 μL/min to equilibrate the flow channel. Next, 70 μL of a mixed aqueous solution of 0.2 mol/L 1-(3-dimethylaminopropyl)-3-ethylcarbodiimide (EDC) and 0.05 mol/L N-hydroxysuccinimide (NHS) was added to activate the sensor chip. Then, Recombinant Human FGFR2 alpha (IIIc) Fc Chimera Protein CF (R&D systems, 712-FR-050) prepared at 50 nmol/L in an Acetate 4.5 buffer (Cytiva, BR100350) was added thereto to perform immobilization at about 5000 RU. Thereafter, the blocking treatment was performed with an ethanolamine solution. In addition, in another flow channel of the same sensor chip, blocking treatment was performed immediately after activation without immobilizing FGFR.
A cyclic peptide diluted to 10 nmol/L using HBS-EP was added to each flow channel of the FGFR-immobilized sensor chip produced above at 25° C. for 10 minutes, then HBS-EP was allowed to flow as a running buffer for 30 minutes, and the binding of the cyclic peptide to FGFR was measured. Thereafter, a regeneration treatment of removing the bound cyclic peptide was performed by repeating the flow of a regeneration liquid in which sodium chloride powder was dissolved in Glysine 1.5 (Cytiva, BR100354) to a final concentration of 0.15 mol/L for 1 minute in each flow channel twice. The binding amount of the cyclic peptide was evaluated from the difference between the measured value of Biacore-T200 in the flow channel in which FGFR was immobilized and the measured value of Biacore-T200 in the flow channel in which FGFR was not immobilated, in a case where a 10 nmol/L cyclic peptide was allowed to flow.
The binding amount of the cyclic peptide evaluated above was normalized to the binding amount of the cyclic peptide molecules per one molecule of FGFR using the molecular weights of the cyclic peptide and FGFR, and the binding affinity to FGFR was evaluated according to the following evaluation criteria. The evaluation result preferably satisfies the evaluation criteria A, B, or C.

[2] = target: T2, FGFR2 Protein, Human, Recombinant (His Tag) (Homo sapiens, UniProt P21802); assay: SPR FGFR versatility, peptide immobilized; conditions: SPR binding amount at 1 μmol/L FGFR, 25° C., per one molecule of immobilized cyclic peptide
T2 construct: His; purchased Sino Biological 10824-H08H
T2 sequence (P21802 22-821): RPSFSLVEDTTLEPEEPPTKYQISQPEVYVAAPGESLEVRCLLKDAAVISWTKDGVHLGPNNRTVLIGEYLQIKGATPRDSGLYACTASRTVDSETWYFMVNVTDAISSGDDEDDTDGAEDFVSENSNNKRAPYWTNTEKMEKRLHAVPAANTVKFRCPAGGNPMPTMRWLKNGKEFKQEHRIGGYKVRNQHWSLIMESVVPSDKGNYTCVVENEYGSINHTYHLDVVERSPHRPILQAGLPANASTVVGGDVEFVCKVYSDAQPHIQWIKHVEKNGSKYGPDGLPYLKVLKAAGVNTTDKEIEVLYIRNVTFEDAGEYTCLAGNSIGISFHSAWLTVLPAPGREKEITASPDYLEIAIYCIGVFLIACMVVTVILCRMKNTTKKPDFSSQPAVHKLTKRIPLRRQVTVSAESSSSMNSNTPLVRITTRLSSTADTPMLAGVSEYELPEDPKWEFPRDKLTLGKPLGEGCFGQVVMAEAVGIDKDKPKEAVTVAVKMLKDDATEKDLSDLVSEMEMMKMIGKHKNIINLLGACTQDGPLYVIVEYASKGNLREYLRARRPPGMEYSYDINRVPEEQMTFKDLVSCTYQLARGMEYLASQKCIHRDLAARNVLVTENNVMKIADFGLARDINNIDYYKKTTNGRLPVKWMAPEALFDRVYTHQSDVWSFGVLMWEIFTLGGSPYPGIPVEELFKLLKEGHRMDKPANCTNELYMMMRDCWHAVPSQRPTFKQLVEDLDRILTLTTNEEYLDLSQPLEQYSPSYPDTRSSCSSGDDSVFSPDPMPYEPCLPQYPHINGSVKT
Procedure: (§2) The binding of the cyclic peptide to various types of FGFRs was evaluated using a surface plasmon resonance (SPR) method.
as §1, with “a cyclic peptide” for “Recombinant Human FGFR2 alpha (IIIc) Fc Chimera Protein CF (R&D systems, 712-FR-050)”, “to 2 mg/mL” for “at 50 nmol/L”, “HBS-EP” for “an Acetate 4.5”, “buffer” for “buffer (Cytiva, BR100350)”, “200” for “5000”
(§3) After various FGFRs (FGFR1 Protein, Human, Recombinant (His Tag) (Sino Biological, 10616-H08H), FGFR2 Protein, Human, Recombinant (His Tag) (Sino Biological, 10824-H08H), FGFR3 Protein, Human, Recombinant (ECD, His Tag) (Sino Biological, 16044-H08H), FGFR4 Protein, Human, Recombinant (His Tag) (Sino Biological, 10538-H08H)) diluted with HBS-EP to 1 μmol/L at 25° C. was added to each flow channel of the cyclic peptide-immobilized sensor chip prepared above, for 10 minutes, HBS-EP was allowed to flow as a running buffer for 30 minutes, and the binding of various FGFRs to the cyclic peptide was measured. Thereafter, a regeneration treatment of removing the bound FGFR was performed by repeating the flow of a regeneration liquid in which sodium chloride (final concentration: 0.4 mol/L) and a sodium dodecyl sulfate aqueous solution (mixed concentration: 1%, final concentration: 0.2%) were dissolved in Glysine 1.5 (Cytiva, BR100354) for 1 minute in each flow channel twice. The binding amount of the cyclic peptide was evaluated from the difference between the measured value of Biacore-T200 in the flow channel in which the cyclic peptide was immobilized and the measured value of Biacore-T200 in the flow channel in which the cyclic peptide was not immobilized, in a case where 1 μmol/L FGFR was allowed to flow.
(§4) The binding amount of FGFR evaluated above was normalized to the binding amount of FGFR molecules per one molecule of the cyclic peptide using the molecular weights of the cyclic peptide and FGFR, and the binding affinity to FGFR was evaluated according to the following evaluation criteria. The evaluation result preferably satisfies the evaluation criteria A, B, or C.

[3] = target: T3, FGFR1 Protein, Human, Recombinant (His Tag) (Homo sapiens, UniProt P11362); assay: SPR FGFR versatility, peptide immobilized; conditions: SPR binding amount at 1 μmol/L FGFR, 25° C., per one molecule of immobilized cyclic peptide
T3 construct: His; purchased Sino Biological 10616-H08H
T3 sequence (P11362 22-822): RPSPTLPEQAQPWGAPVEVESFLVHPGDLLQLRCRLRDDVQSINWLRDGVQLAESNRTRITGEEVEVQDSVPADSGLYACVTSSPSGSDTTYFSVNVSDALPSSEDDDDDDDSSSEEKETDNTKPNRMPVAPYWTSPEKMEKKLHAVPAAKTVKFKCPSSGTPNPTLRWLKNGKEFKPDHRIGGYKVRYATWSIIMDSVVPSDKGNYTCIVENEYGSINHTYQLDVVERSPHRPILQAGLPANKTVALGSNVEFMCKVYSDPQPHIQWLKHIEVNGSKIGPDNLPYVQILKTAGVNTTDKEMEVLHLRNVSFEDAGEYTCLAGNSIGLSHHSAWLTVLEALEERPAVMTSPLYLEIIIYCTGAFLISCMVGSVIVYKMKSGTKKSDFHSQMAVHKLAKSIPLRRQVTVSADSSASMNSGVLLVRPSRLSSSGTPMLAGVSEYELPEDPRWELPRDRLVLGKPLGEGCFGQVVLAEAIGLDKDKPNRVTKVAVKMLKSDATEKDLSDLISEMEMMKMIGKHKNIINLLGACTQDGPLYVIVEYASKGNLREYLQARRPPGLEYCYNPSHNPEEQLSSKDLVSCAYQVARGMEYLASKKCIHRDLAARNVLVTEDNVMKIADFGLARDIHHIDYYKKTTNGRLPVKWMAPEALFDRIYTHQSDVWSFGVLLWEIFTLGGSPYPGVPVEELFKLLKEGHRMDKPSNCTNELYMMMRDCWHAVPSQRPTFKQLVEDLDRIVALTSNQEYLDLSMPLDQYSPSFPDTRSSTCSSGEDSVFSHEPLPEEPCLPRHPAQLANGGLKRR
Procedure: as §2
as §1, with “a cyclic peptide” for “Recombinant Human FGFR2 alpha (IIIc) Fc Chimera Protein CF (R&D systems, 712-FR-050)”, “to 2 mg/mL” for “at 50 nmol/L”, “HBS-EP” for “an Acetate 4.5”, “buffer” for “buffer (Cytiva, BR100350)”, “200” for “5000”
as §3, §4

[4] = target: T4, FGFR4 Protein, Human, Recombinant (His Tag) (Homo sapiens, UniProt P22455); assay: SPR FGFR versatility, peptide immobilized; conditions: SPR binding amount at 1 μmol/L FGFR, 25° C., per one molecule of immobilized cyclic peptide
T4 construct: His; purchased Sino Biological 10538-H08H
T4 sequence (P22455 22-802): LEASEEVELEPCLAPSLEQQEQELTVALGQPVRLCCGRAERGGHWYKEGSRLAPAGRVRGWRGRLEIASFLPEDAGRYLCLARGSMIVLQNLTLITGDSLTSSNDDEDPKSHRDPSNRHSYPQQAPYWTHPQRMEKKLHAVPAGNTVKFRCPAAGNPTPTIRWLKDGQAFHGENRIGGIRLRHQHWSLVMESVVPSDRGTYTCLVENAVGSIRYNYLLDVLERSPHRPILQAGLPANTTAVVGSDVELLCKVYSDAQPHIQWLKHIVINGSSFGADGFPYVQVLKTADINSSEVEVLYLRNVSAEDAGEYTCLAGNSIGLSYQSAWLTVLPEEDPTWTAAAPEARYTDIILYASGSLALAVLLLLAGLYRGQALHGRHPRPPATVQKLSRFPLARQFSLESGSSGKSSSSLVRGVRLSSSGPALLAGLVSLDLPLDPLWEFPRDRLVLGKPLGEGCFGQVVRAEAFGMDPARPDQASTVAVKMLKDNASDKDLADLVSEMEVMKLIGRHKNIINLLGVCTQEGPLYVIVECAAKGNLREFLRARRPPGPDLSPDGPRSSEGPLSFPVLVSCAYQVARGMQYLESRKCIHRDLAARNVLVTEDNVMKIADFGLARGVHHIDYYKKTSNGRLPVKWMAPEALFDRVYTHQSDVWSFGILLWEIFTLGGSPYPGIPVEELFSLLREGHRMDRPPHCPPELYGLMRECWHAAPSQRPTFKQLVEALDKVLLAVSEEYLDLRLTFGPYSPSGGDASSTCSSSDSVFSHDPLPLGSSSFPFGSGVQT
Procedure: as §2
as §1, with “a cyclic peptide” for “Recombinant Human FGFR2 alpha (IIIc) Fc Chimera Protein CF (R&D systems, 712-FR-050)”, “to 2 mg/mL” for “at 50 nmol/L”, “HBS-EP” for “an Acetate 4.5”, “buffer” for “buffer (Cytiva, BR100350)”, “200” for “5000”
as §3, §4

[5] = target: T5, FGFR3 Protein, Human, Recombinant (ECD, His Tag) (Homo sapiens, UniProt P22607); assay: SPR FGFR versatility, peptide immobilized; conditions: SPR binding amount at 1 μmol/L FGFR, 25° C., per one molecule of immobilized cyclic peptide
T5 construct: FGFR3 Protein, Human, Recombinant (ECD, His Tag) (Sino Biological, 16044-H08H); His; purchased Sino Biological 16044-H08H
T5 sequence (P22607 23-375 limits assumed): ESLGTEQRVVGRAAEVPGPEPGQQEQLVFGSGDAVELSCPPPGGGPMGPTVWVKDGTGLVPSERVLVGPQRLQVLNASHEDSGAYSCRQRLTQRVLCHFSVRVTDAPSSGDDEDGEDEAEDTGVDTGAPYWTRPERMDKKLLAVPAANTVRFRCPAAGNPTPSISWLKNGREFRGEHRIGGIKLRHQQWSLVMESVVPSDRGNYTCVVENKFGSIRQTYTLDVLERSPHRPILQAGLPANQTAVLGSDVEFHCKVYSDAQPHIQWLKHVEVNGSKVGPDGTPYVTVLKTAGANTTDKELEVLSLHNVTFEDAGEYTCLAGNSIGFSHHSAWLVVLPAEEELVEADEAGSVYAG
Procedure: as §2
as §1, with “a cyclic peptide” for “Recombinant Human FGFR2 alpha (IIIc) Fc Chimera Protein CF (R&D systems, 712-FR-050)”, “to 2 mg/mL” for “at 50 nmol/L”, “HBS-EP” for “an Acetate 4.5”, “buffer” for “buffer (Cytiva, BR100350)”, “200” for “5000”
as §3, §4

[6] = Molecular stability after reducing agent (DTT) treatment, LC; assay type: physicochemical; conditions: residual rate after DTT aqueous solution, room temperature, 1 hour
Procedure: The molecular stability of the cyclic peptide was evaluated by analyzing an aqueous solution of the cyclic peptide treated with a reducing agent by liquid chromatography (LC).
The reducing agent treatment was performed under the following conditions based on the concentration of glutathione contained in the cells. 25 μL of a 0.2 mg/mL cyclic peptide aqueous solution was prepared, 58.8 μL of a 12.6 mmol/L DTT aqueous solution was added to the aqueous solution, and the mixture was incubated at room temperature for 1 hour to obtain an aqueous solution of the cyclic peptide treated with a reducing agent. The DTT aqueous solution was used by diluting a 1 mol/L (+−)-dithiothreitol (DTT) solution (FUJIFILM Wako Pure Chemical Corporation, 044-33871) with water. The total area of all the peaks in LC/MS of the cyclic peptide before the reducing agent treatment was set to 100%, and the proportion of the total area of all the peaks in LC/MS of the aqueous solution of the cyclic peptide treated with the reducing agent was determined to calculate the residual rate of the cyclic peptide, and the molecular stability was evaluated according to the following evaluation criteria. The evaluation result preferably satisfies the evaluation criteria A, B, or C.
The LC used for the evaluation of molecular stability was set to the following conditions. • LC device: Prominence series (pump, column oven, autosampler, detector) (manufactured by Shimadzu Corporation) • Detector: photodiode array detector (SPD-M20A), measurement wavelength of 280 nm • Column: TSKgel ODS-100V, inner diameter of 4.6 mm×length of 150 mm, particle diameter of 5 μm (manufactured by Tosoh Corporation) • Eluent A: solution containing 0.1% trifluoroacetic acid as solute, and solvent is 100% water • Eluent B: solution containing 0.1% trifluoroacetic acid as solute, and solvent is 100% acetonitrile • Flow rate: 1.0 mL/min • Injection amount: 25 μL • Gradient: 20% to 50%: Eluent B (0 to 15 minutes), 100%: Eluent B (15 minutes) • Column temperature: 40° C.

450 (YCEENYLDPEQYQYFIYFK(COCH2)YKKK; thioether 2-19) [compound 450]
Evaluation result of binding affinity to FGFR [1]: A (The binding amount is 0.7 molecules of the cyclic peptide/one molecule of FGFR or more.) | Evaluation result of binding affinity F GFR2 [2]: A (The binding amount is 0.05 molecules of FGFR/one molecule of the cyclic peptide or more.) | Evaluation result of binding affinity to FGFR1 [3]: B (The binding amount is 0.01 molecules of FGFR/one molecule of the cyclic peptide or more and less than 0.05 molecules of FGFR/one molecule of the cyclic peptide.) | Evaluation result of binding affinity to FGFR4 [4]: B (The binding amount is 0.01 molecules of FGFR/one molecule of the cyclic peptide or more and less than 0.05 molecules of FGFR/one molecule of the cyclic peptide.) | Evaluation result of binding affinity to FGFR3 [5]: B (The binding amount is 0.01 molecules of FGFR/one molecule of the cyclic peptide or more and less than 0.05 molecules of FGFR/one molecule of the cyclic peptide.) | Evaluation result of reductive stability [6]: B (The residual rate of the cyclic peptide is 70% or more and less than 90%)
